Assay results: paper PMC3985065 (Protein expression and purification, 2014)

Assays:
[1] = target: T1, mouse glycine N-acyltransferase (mGLYAT) (Mus musculus, UniProt Q91XE0); assay: DTNB assay of CoA-SH release, […] benzoyl-CoA and […] glycine; format: biochemical
T1 sequence (Q91XE0 1-296): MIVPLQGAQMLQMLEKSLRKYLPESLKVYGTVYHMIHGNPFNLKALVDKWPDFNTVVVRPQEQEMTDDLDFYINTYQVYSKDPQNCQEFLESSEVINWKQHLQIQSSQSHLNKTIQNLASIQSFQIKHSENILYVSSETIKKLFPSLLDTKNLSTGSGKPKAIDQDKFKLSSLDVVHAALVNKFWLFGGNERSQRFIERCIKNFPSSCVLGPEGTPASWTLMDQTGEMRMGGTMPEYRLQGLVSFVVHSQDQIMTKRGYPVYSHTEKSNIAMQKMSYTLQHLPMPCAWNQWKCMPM

purified protein [2] = substrate: CC(=O)SCCNC(=O)CCNC(=O)[C@H](O)C(C)(C)COP(=O)(O)OP(=O)(O)OC[C@H]1O[C@@H](n2cnc3c(N)ncnc32)[C@H](O)[C@@H]1OP(=O)(O)O; assay: purified protein; settings: amino acceptor substrate
purified protein [3] = substrate: CC(C)(COP(=O)(O)OP(=O)(O)OC[C@H]1O[C@@H](n2cnc3c(N)ncnc32)[C@H](O)[C@@H]1OP(=O)(O)O)[C@@H](O)C(=O)NCCC(=O)NCCSC(=O)c1ccccc1; assay: purified protein; format: biochemical, Mus musculus; settings: amino acceptor substrate
purified protein [4] = substrate: CCOC(=O)CN; assay: purified protein; format: biochemical, Mus musculus; settings: benzoyl-CoA (co-substrate) amino donor substrate
purified protein [5] = substrate: CCCC(=O)SCCNC(=O)CCNC(=O)[C@H](O)C(C)(C)COP(=O)(O)OP(=O)(O)OC[C@H]1O[C@@H](n2cnc3c(N)ncnc32)[C@H](O)[C@@H]1OP(=O)(O)O; assay: purified protein; format: biochemical, Mus musculus; settings: amino acceptor substrate
purified protein [6] = substrate: NCC(=O)O; assay: purified protein; format: biochemical, Mus musculus; settings: benzoyl-CoA (co-substrate) amino donor substrate
purified protein [7] = substrate: CCCCCC(=O)SCCNC(=O)CCNC(=O)[C@H](O)C(C)(C)COP(=O)(O)OP(=O)(O)OC[C@H]1O[C@@H](n2cnc3c(N)ncnc32)[C@H](O)[C@@H]1OP(=O)(O)O; assay: purified protein; format: biochemical, Mus musculus; settings: amino acceptor substrate
purified protein [8] = substrate: COC(=O)CN; assay: purified protein; format: biochemical, Mus musculus; settings: benzoyl-CoA (co-substrate) amino donor substrate

CCCCCCCC/C=C\CCCCCCCC(=O)SCCNC(=O)CCNC(=O)[C@H](O)C(C)(C)COP(=O)(O)OP(=O)(O)OC[C@H]1O[C@@H](n2cnc3c(N)ncnc32)[C@H](O)[C@@H]1OP(=O)(O)O [Oleoyl-CoA]
IC50 [1]: 0.021 ± 0.0034 mM

O=C(O)CO [Glycolic acid]
IC50 [1]: 58 ± 4.9 mM

B1: mouse glycine N-acyltransferase (mGLYAT) (Mus musculus) (protein)
chain: T1 sequence (Q91XE0 1-296)
Km (purified protein [2]): 209 ± 43 µM | kcat (purified protein [2]): 0.8 s⁻¹ | kcat/Km (purified protein [2]): 3800 M⁻¹ s⁻¹ | Km (purified protein [3]): 9.4 ± 14 µM | kcat (purified protein [3]): 4.2 ± 0.25 s⁻¹ | kcat/Km (purified protein [3]): 450000 ± 27000 M⁻¹ s⁻¹ | Km (purified protein [4]): 9700 ± 1700 µM | kcat (purified protein [4]): 0.57 ± 0.023 s⁻¹ | kcat/Km (purified protein [4]): 59 ± 2.3 M⁻¹ s⁻¹ | Km (purified protein [5]): 52 ± 7.9 µM | kcat (purified protein [5]): 15 ± 0.43 s⁻¹ | kcat/Km (purified protein [5]): 290000 ± 8200 M⁻¹ s⁻¹ | Km (purified protein [6]): 6100 ± 1200 µM | kcat (purified protein [6]): 3.2 ± 0.12 s⁻¹ | kcat/Km (purified protein [6]): 520 ± 20 M⁻¹ s⁻¹ | Km (purified protein [7]): 45 ± 3.0 µM | kcat (purified protein [7]): 4.6 ± 0.085 s⁻¹ | kcat/Km (purified protein [7]): 100000 ± 1900 M⁻¹ s⁻¹ | Km (purified protein [8]): 29000 ± 9100 µM | kcat (purified protein [8]): 1 ± 0.12 s⁻¹ | kcat/Km (purified protein [8]): 35 ± 4.1 M⁻¹ s⁻¹
